T1: ALFA^ST peptide (Ac-PSRLEEELRRRLTEP-Amide)
T1 construct: also called free ALFA^ST peptide; ALFA peptide
T1 peptide: Ac-PSRLEEELRRRLTEP-NH2

B1: NbALFA^ST (NbALFA clone 1G5) (VHH)
VHH: EVQLQESGGGLVQPGGSLRLSCTASGVTISALNAMAMGWYRQAPGERRVMVAAVSERGNAMYRESVQGRFTVTRDFTNKMVSLQMDNLKPEDTAVYYCHVLEDRVDSFHDYWGQGTQVTVSS
notes: Alpaca single-domain antibody; also called ALFA Selector^ST (resin-immobilised form); FluoTag-X2 anti-ALFA (fluorophore-coupled form)
B2: NbALFA^PE (NbALFA mutant for Peptide Elution) (VHH)
VHH: EVQLQESGGGLVQPGGSLRLSCTASGVTISALNAMAMGWYRQAPGEERVMVAAVSSRGNAMYRESVQGRFTVTRDFTNKMVSLQMDNLKPEDTAVYYCHVLEDRVDSFHDYWGQGTQVTVSS
notes: Weaker mutant of NbALFA^ST; used immobilised on agarose (ALFA Selector^PE) or in solution (MST); also called ALFA Selector^PE (resin-immobilised form)

Key:
[1] = molecular target: FLAG-HA-MBP-myc-ALFA^ST; experiment: dot blot of a dilution series of the MBP fusion
Method: Membranes were scanned using Odyssey CLx (Li-COR). Quantifications were performed using ImageStudioLight (Li-COR).

[2] = molecular target: T1, ALFA^ST peptide …; experiment: competitive elution of shGFP2-ALFA^ST from NbALFA^PE resin

Binder	fold lower detection limit than for the other epitope tags [1]	binding result [2]
B1	~10 fold	
B2		binds

Reference: patent US20260103490A1 (published 2026)
